This data set is described as follows: protein stability index of a GFP-peptide fusion (yeast GPS) (PSI 1-4); higher = more stable; sorted into four equal gates, so the index is relative within each strain. The method in brief: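 Plasmids isolated from each sorting gate were PCR-amplified and Illumina-sequenced, and barcodes assigned the reads to strains. The gates, four of equal size, were set by GFP/Cherry fluorescence ratio on mid-log cultures in leucine-free medium. These cultures were yeast carrying a pooled library of tiled 17-residue yeast protein peptides fused downstream of GFP on a plasmid that also expresses Cherry. The protein stability index is the sum of every gate's read frequency times its gate number.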

± gives the uncertainty stated by the source.

As to LTFVSVDEELGPSIYKT [SCL1], the protein stability index runs as follows: (doa10∆) 2.37 ± 0.065; (pdr5∆) 1.94 ± 0.05; (san1∆) 3.02 ± 0.054; (ubr1∆) 2.99 ± 0.067.
For LTGEAEIEQPVTTFVFT [FAS1], in that order: 3.16 ± 0.083, 2.98 ± 0.067, 2.64 ± 0.096 and 2.4 ± 0.055.
The matching figures for LTHVDLIEKFLRYNPLE [RPB10]: 2.91 ± 0.14, 3.29 ± 0.12, 3.23 ± 0.071 and 3.12 ± 0.04.
The matching figures for LTIFDSVDESARIKDAF [YJL039C/NUP192]: 3.01 ± 0.11, 3.07 ± 0.094, 3.19 ± 0.051 and 3.02 ± 0.093.
In the case of LTIVTCKQFPKLSCIQL [SRB8], the protein stability index runs as follows: (doa10∆) 1.99 ± 0.07; (pdr5∆) 1.86 ± 0.058; (san1∆) 1.46 ± 0.05; (ubr1∆) 1.6 ± 0.03.
Regarding LTKKKNEEINKKSLEED [SEM1], the protein stability index runs as follows: (pdr5∆) 3.31 ± 0.11; (san1∆) 2.77 ± 0.18.
LTKYIRSKNLIFNGETL [GRR1] had a protein stability index (doa10∆) of 2.52 ± 0.086, a protein stability index (pdr5∆) of 2.43 ± 0.06, a protein stability index (san1∆) of 1.92 ± 0.078 and a protein stability index (ubr1∆) of 1.91 ± 0.06.
The matching figures for LTNGVTEHVRQNAKLLA [RRP6]: 1.6 ± 0.041, 1.88 ± 0.073, 1.99 ± 0.23 and 1.59 ± 0.069.
For LTVIEKLDSKKILPTDI [SRP68], in that order: 2.71 ± 0.13, 3 ± 0.12, 2.95 ± 0.1 and 2.71 ± 0.061.
The matching figures for LTYLYEMKNIRGPYLVI [SNF2]: 1.22 ± 0.059, 1.32 ± 0.04, 1.27 ± 0.098 and 1.22 ± 0.042.
For LVAKLKKVKSASKKSGG [SMC4], the protein stability index was 2.4 ± 0.074 (doa10∆), 2.62 ± 0.085 (pdr5∆), 2.13 ± 0.12 (san1∆) and 2.45 ± 0.052 (ubr1∆).
For LVDENTDYLYRRLHDEN [YCS4], in that order: 2.68 ± 0.056, 2.64 ± 0.048, 2.68 ± 0.063 and 2.24 ± 0.034.
Turning to LVDNLNAEVVAGNIKCR [BRR2], the protein stability index was 1.79 ± 0.087 (doa10∆), 1.67 ± 0.07 (pdr5∆), 1.72 ± 0.14 (san1∆) and 1.45 ± 0.075 (ubr1∆).
The matching figures for LVDVMTTQGGLTSVTRH [RPO21]: 2.14 ± 0.1, 2.38 ± 0.072, 2.1 ± 0.09 and 2.3 ± 0.069.
LVEARSLGHQTSLITAV [MTR3]: the protein stability index turned out to be 2.69 ± 0.08 (doa10∆), 1.97 ± 0.067 (pdr5∆), 2.79 ± 0.082 (san1∆) and 1.25 ± 0.064 (ubr1∆).
For LVEPSKVGQFDQVLNLC [FAS1], in that order: 2.35 ± 0.13, 2.41 ± 0.09, 2.78 ± 0.11 and 2.73 ± 0.16.
For LVFCKHITSVPISAVLR [GRR1], in that order: 1.61 ± 0.053, 1.72 ± 0.05, 1.92 ± 0.088 and 1.71 ± 0.042.
For LVISLAATNETFENINS [IRR1], the protein stability index worked out at 2.07 ± 0.11 (doa10∆), 2.4 ± 0.13 (pdr5∆) and 1.9 ± 0.095 (san1∆).
For LVLADAFDIELSEFGIK [YCS4], the protein stability index runs as follows: (doa10∆) 2.92 ± 0.052; (pdr5∆) 3.06 ± 0.057; (san1∆) 2.9 ± 0.068; (ubr1∆) 2.89 ± 0.046.
For LVLLELVSSGDRFIELI [YML103C/NUP188], in that order: 2.56 ± 0.1, 2.08 ± 0.07, 2.21 ± 0.068 and 2.3 ± 0.088.
Sequence LVLNKSSIDRGFGRCET [RET1] showed a protein stability index (doa10∆) of 3.03 ± 0.28, a protein stability index (pdr5∆) of 3.11 ± 0.23 and a protein stability index (san1∆) of 2.76 ± 0.12.
LVSLFEDTNLAAIHAKR [HHT1]: the protein stability index by setting is: (doa10∆) 2.9 ± 0.17; (pdr5∆) 2.67 ± 0.17; (san1∆) 2.56 ± 0.12; (ubr1∆) 2.81 ± 0.063.
The matching figures for LVSSGDRFIELISDQLL [YML103C/NUP188]: 2.76 ± 0.099, 2.5 ± 0.079, 2.42 ± 0.057 and 3 ± 0.06.
The matching figures for LVTPKSFLFDVLKTLEY [NUT1]: 2.91 ± 0.18, 2.98 ± 0.18, 3.1 ± 0.15 and 2.92 ± 0.18.
For LVTQHKAKYNTPKYRLV [RPL5], in that order: 1.43 ± 0.052, 1.94 ± 0.064, 1.76 ± 0.095 and 1.87 ± 0.058.

The record behind these values is the supplement of paper PMC9732359.
